# B1: L1 metallo-β-lactamase (MBL) from Stenotrophomonas maltophilia (enzyme)
# chain: SAAEAPLPQLRAYTVDASWLQPMAPLQVADHTWQIGTEDLTALLVQTAEGAVLLDGGMPQMAGHLLDNMKLRGVAPQDLRLILLSHAHADHAGPVAELKRRTGAHVAANAETAVLLARGGSNDLHFGDGITYPPASADRIIMDGEVVTVGGIAFTAHFMPGHTPGSTAWTWTDTRDGKPVRIAYADSLSAPGYQLKGNPRYPRLIEDYKRSFATVRALPCDLLLTPHPGASNWNYAVGSKASAEALTCNAYADAAEKKFDAQLARETAGTR
# notes: L1 metallo-β-lactamase, Stenotrophomonas maltophilia K279a, residues 20-290, amplified from genomic DNA and cloned into pMCSG53; Homotetramer; Active-site residue numbers in the text (H116, H118, D120 ...) appear to follow the standard MBL numbering, not the 20-290 numbering of the construct; also called L1 MBL; source: E. coli BL21 DE3 (Gold), purified (IMAC, TEV cleavage, second IMAC); not …
# Molecular target: the molecule itself
# Experiment: SEC; L1 in solution; conditions not given
protein,measurement,value
B1,stoichiometry N,4

# Reference: article PMC9712583, “Time-resolved β-lactam cleavage by L1 metallo-β-lactamase” (Nature Communications, 2022)
